T1: APRIL, soluble form (Homo sapiens (Human), UniProt O75888 105-250)
T1 sequence: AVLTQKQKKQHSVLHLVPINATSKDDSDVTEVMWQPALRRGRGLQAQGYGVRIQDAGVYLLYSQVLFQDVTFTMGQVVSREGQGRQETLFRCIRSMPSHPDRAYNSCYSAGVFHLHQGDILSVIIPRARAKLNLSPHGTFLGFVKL


What was measured:
[1] = molecular target: T2, HIS-tagged B Lymphocyte Stimulator (human, UniProt Q9Y275 71-285); test: BIAcore, periplasmic scFv on high density HIS-BLyS surface
T2 construct: Expressed in E. coli from pQE9 and purified; also called histidine-tagged B Lymphocyte Stimulator; HIS-B Lymphocyte Stimulator; not shown: histidine tag of the pQE9 vector
Method: All BIAcore analysis was performed on BIAcore 2000 machines, using the BIAcore 2000 control software and evaluated using the BIAevaluation 3.0 software. A high density His-tagged B Lymphocyte Stimulator surface (>1000 RU HIS-B Lymphocyte Stimulator coupled) was prepared in flow cell 2 by amine coupling to a CM5 chip. A new CM5 chip was inserted into the BIAcore and a sensorgram started over flow cell 2 with HBS buffer at a flow rate of 5 μl/min. The NHS and EDC solution were mixed 1:1 before injecting 30 μl over the CM5 surface. Fifty μl HIS-B Lymphocyte Stimulator (at 10 μg/ml in Sodium acetate buffer, pH4) was injected and allowed to couple to the surface. Thirty μl of ethanolamine-HCl solution was then injected to block free NHS esters. Prior to using the chip, 10 μl of 4M Guanidine hydrochloride in HBS was injected over the surface to strip the surface of non-covalently bound B Lymphocyte Stimulator. A blank surface (no HIS-B Lymphocyte Stimulator) was also prepared over flow cell 1 so that non-specific binding effects can be subtracted from the HIS-B Lymphocyte Stimulator binding curves.
The 96-well plate containing periplasmic scFvs was secured inside the BIAcore. Two ml of 4M Guanidine hydrochloride in HBS was placed in a rack inside the BIAcore for regeneration of the HIS-B Lymphocyte Stimulator surface between samples. The sensorgram was run over flow cells 1 and 2 at a flow rate of […].

[2] = molecular target: T3, B Lymphocyte Stimulator, soluble form (human) (human, UniProt Q9Y275 134-285, biotinylated with NHS-biotin where used as biotinylated B Lymphocyte Stimulator); test: phage display panning on soluble BLyS
T3 construct: Coated on plastic, captured on streptavidin plates, amine-coupled to a CM5 chip or free in solution, depending on the assay; also called BLyS; immobilized B Lymphocyte Stimulator
Description: (§1) In a specific embodiment, antibodies of the present invention cross react with APRIL (SEQ ID NO:3239; GenBank Accession No. AF046888; J. Exp. Med. 188(6):1185-1190; PCT International Publication WO97/33902). […] These scFvs were isolated by panning a phage scFv library comprising VH and VL domains obtained from human bone marrow B cells (BM library). Phage from the BM phage library were first selected for binding to soluble B Lymphocyte Stimulator (amino acids 134-285 of SEQ ID NO:3228). A second round of selection for binding to the soluble form of APRIL (amino acids 105-250 of SEQ ID NO:3239) was then performed on the B Lymphocyte Stimulator binding phage selected in round one. A third round of selection for binding to the soluble form of APRIL (amino acids 105-250 of SEQ ID NO:3239) was then performed on the phage selected in round two. A final (fourth) round of selection for binding to the soluble form of B Lymphocyte Stimulator (amino acids 134-285 of SEQ ID NO:3228) was then performed on the phage selected in round three. Phage clones that bound B Lymphocyte Stimulator in the fourth round of selection were eluted with either 0.1M triethylamine (TEA) or with a TACI-Fc fusion protein (e.g., the extracellular domain of TACI (amino acids 31 to 159 of Genbank Accession No. AAC51790) fused to Fc).

APRIL, soluble form = molecular target: T1, APRIL, soluble form; test: phage display panning on soluble APRIL, rounds two and three
Description: as §1

Binder | binding result [1] | binding result [2] | binding result (APRIL, soluble form)
I084A01 (scFv) scFv: QVQLVQSGGGLVQPGGSLRLSCAASGFTFSSYEMNWVRQAPGKGLEWVSYISSSGSTTYYADSVKGRFTISRDNAKNSLYLQMNSLRAEDTAVYYCARDTTDYWGQGTMVTVSSGGGGSGGGGSGGGGSQSVLTQPPSASGTPGQRVTISCSGSSSNIGSNTVNWYQRLPGAAPQLLIYNNDQRPSGIPDRFSGSKSGTSGSLVISGLQSEDEADYYCASWDDSLNGRVFGGGTKLTVLG | binds | – | –
BAB2034 (scFv) scFv: QVQLQQSGPGLVKPSQTLSLTCAISGDSVSSNSAAWNWIRQSPSRGLEWLGRTYYRSKWYNDYAVSVKSRITINPDTSKNQFSLQLNSVTPEDTAVYYCAREGAHYDILTGHNYYHYGMDVWGQGTMVTVSSGGGGSGGGGSGGGGSQSVLTQPPSASGSPGQSVTISCTGTSSDVGGYNYVSWYQQHPGKAPKFMIYDVSKRPSGVSNRFSGSKSGNTASLTISGVQAEDEADYYCSSYTSASTVIFGGGTKLTVLG | – | binds | binds
I082G01 (scFv) scFv: QMQLVQSGAEVKKPGASVKVSCKASGYTFTSYYMHWVRQAPGQGLEWMGLVHPNDGSVNYAQKFKGRVTMTRDTSTSTVYMELSSLRSDDTAVYYCARDRGSGWPNWYFDLWGQGTLVTVSSGGGGSGGGGSGGGGSDIQMTQSPSTLSASIGDRVTITCRASEGIYHWLAWYQQKPGKAPKLLIYKASSLASGAPSRFSGSGSGTDFTLTISSLQPDDFATYYCQQYSNYPLTFGGGTKLEIKH | binds | – | –
BAB2001 (scFv) scFv: GVQLVQSGAEVRKPGASVKVSCKPSGYPFSGNYIHWVRQAPGQGPEWMGWINPNSGDTKYSQKFQGWVTMTRDTSVSTVYMELNRLKSDDTAIYYCAREQYDTLTGSPYGMDVWGKGTLVTVSSGGGGSGGGGSGGGGSDIQMTQSPSTLSASIGDRVTITCRASQGINNYLAWYQQKPGRAPKLLIYAASSLQSGVPSRFSGSGSGTDFTLTISSLQPEDFATYYCLQDSDYPLTFGGGTKLEIKR | – | binds | binds
I082B08 (scFv) scFv: QVQLVQSGAEVKKPGGSVKVSCKASAYTFTRYYMHWVRQAPGQGLEWMGIINPSGGRTSYAQKFQGRVTMTRDTSTSTVYMELSSLRSEDTAVYYCARDLGIAGTIYFDYWGKGTLVTVSSGGGGSGGGGSGGGGSQSVLTQPPSVSAAPGQKVTISCSGSTSNIGNNYVSWYQQHPGKAPKLMIYDVSKRPSGVPDRFSGSKSGNSASLDISGLQSEDEADYYCAAWDDSLSEFLFGTGTKLTVLG | binds | – | –
BAB2080 (scFv) scFv: KVQLVQSGGGLVKPGGSLRLSCAASGFTFSNYGMHWVRQAPGKGLEWVALISYDGSNKYYADSVKGRFTISRDNSKNTLYLQMNSLRAEDTAVYYCAKLNSLRGGHDYWGRGTLVTVSSGGGGSGGGGSGGGGSQSVLTQPPSVSAAPGQKVTISCSGSTSNIGNNYVSWYQQHPGKAPKLMIYDVSKRPSGVPDRFSGSKSSNSASLDISGLQSEDEADYYCAAWDDSLSEFLFGTGTKLTVLG | – | binds | binds
BAB2019 (scFv) scFv: EVQLVQSGAEVKKPGASVKVSCKASGYTFTSSGISWVRQAPGQGLEWMGWINGYNGNTKYAQKFQGRVTMTTDTSTTTAYMELRSLRSDDTAVYYCARDSYDILTDYYNMIMDVWGQGTLVTVSSGGGGSGGGGSGGGGSQSVLTQPASVSGSPGQSITISCTGTSSDVGGYNYVSWYQQHPGKAPKLMIYEGSKRPSGVSNRFSGSKSGNTASLTISGLQAEDEADYYCSSYTTRSTRVFGGGTKLTVLG | – | binds | binds
BAB2087 (scFv) scFv: QVQLVQSGAEVKKPGASVKVSCKASGFAFSSYDINWVRQAPGQGLEWMGWMNPKSGKTGYAQNFQGRVTMTRNTSISTAYMELSSLKSEDTAVYFCARGFTGYDILTDYYSVDYFDSWGRGTLVTVSSGGGGSGGGGSGGGGSALPVLTQPPSVSVAPGQTARITCGGSSIGRKSVHWYQQSPGQAPVLVVYDDSDRPSGIPERFSGSNSGDTATLTISRVEVGDEADYYCQVWDINSDHVVFGGGTKLTVLG | – | binds | binds
BAB2015 (scFv) scFv: QVQLVQSGAEVKKPGSSVKVSCKASGGTLGNYGISWVRQAPGQGLEWMGAIIPNFGTTNYVQKFQGRVTMTTDTSTSTAYMELRSLRSDDTAVYYCARGASSGWYDYYYYMDVWGKGTMVTVSSGGGGSGGGGSGGGGSDIQMTQSPSTLSASIGDRVTITCRASEGIYHWLAWYQQKPGKAPKLLIYKASSLASGAPSRFSGSGSGTDFTLTISSLQPDDFATYYCQQYSNYPLTFGGGTKLEIRR | – | binds | binds
I084B02 (scFv) scFv: QVQLVQSGGGLVQPGGSLRLSCAASGFTFSSYEMNWVRQAPGKGLEWVSYISSSGSTTYYADSVKGRFTISRDNAKNSLYLQMNSLRAEDTAVYYCARDTTDYWGQGTLVTVSSGGGGSGGGGSGGGGSDIVMTQSPSTLSASVGDRVTITCRASQGISSWLAWYQQKPGRAPKVLIYKASTLESGVPSRFSGSGSGTDFTLTISSLQPEDFATYYCQQSYSTPWTFGQGTKLEIKR | binds | – | –
I080A08 (scFv) scFv: QVTLKESGGDLVQPGGSLRLSCAASGLTFMSYAMTWVRQAPGKGLEWVSSISGSGDNTYYGDSVRGRFTISRDNSKNTLFLQLNSLRAEDTAFYYCAKVHSTGYAFENWGRGTLVTVSSGGGGSGGGGSGGGGSAQSVLTQPPSVSGAPGQRVTISCTGSSSNIGAGYNVHWYQQLPGTAPRLLISSNTNRPSGVPDRFSGSKSGTSASLAITGLQAEDEADYYCQSYDSSLSGFVFGTGTKVTVLG | binds | – | –
BAB2016 (scFv) scFv: EVQLVQSGGGLVQPGGSLRLSCAASGFTFSSYWMSWVRQAPGKGLEWVANIKQDGSGKYYVDSVKGRFTISRDNAKNSLYLQMNSLRAEDTAVYYCARDPRYDILTGYLYGMDVWGQGTMVTVSSGGGGSGGGGSGGGGSQSVLTQPASVSGSPGQSITISCTGTSSDVGGYNYVSWYQQHPGKAPKLMIYEGSKRPSGVSNRFSGSKSGNTASLTISGLQAEDEADYYCSSYTTRSTRVFGGGTKLTVLG | – | binds | binds
I084C11 (scFv) scFv: GVQLEESGAEVKKPGASVKVSCKASGYTFTGYYMHWVRQAPGQGLEWMGWINPNSGGTNYAQKFQGRVTMTRDTSISTAYMELSRLRSDDTAVYYCARGNAWGAFDIWGRSTLVTVSSGGGGSGGGGSGGGGSQSVLTQPASVSGSPGQSITISCTGTSSDVGGYNYVSWYQQHPGKAPKLMIYEGSKRPSGVSNRFSGSKSGNTASLTVSGLQAEDEADYYCSSYTTRSTRVFGGGTKLTVLG | binds | – | –
I082A05 (scFv) scFv: QVQLQQSGGGVVQPGRSLRLSCAASGFTYSSYAMHWVRQAPGKGLEWVAVISYDGSIKYYADSVKGRFTISRDNSKNTLYLQMNSLRAEDTAVYYCARDLDFDYWGKGTLVTVSSGGGGSGGGGSGGGGSQSVLTQPPSVSAAPGQKVTISCSGSTSNIGNNYVSWYQQHPGKAPKFMIYDVSKRPSGVSNRFSGSKSGNTASLTISGVQAEDEADYYCSSYTSASTVIFGGGTKLTVLG | binds | – | –

Reference: US20110293610A1 (published 2011)
